Measured values reported in paper PMC11763500.
Where “and” joins values, the source holds several entries; their conditions need not be identical. Equal values may be shown once.

Columns and labels:
[1] = target: SARS-CoV-2 spike (S) protein, Omicron (SARS-CoV-2 Omicron variant) (UniProt P0DTC2); experiment: SPR; conditions: 5' di-DTPA (2 dithiol phosphoramidite) in printed sequence; not stated whether present in SPR analyte
[2] = target: SARS-CoV-2 spike (S) protein, Omicron (SARS-CoV-2 Omicron variant) (UniProt P0DTC2); experiment: electrochemical aptasensor (DPV); conditions: 5' di-DTPA (2 dithiol phosphoramidite groups), on gold with PEG 2000 backfill
[3] = target: SARS-CoV-2 spike (S) protein, alpha (SARS-CoV-2 alpha variant) (UniProt P0DTC2); experiment: electrochemical aptasensor (DPV); conditions: 5' di-DTPA (2 dithiol phosphoramidite groups), on gold with PEG 2000 backfill
[4] = target: SARS-CoV-2 spike (S) protein, beta (SARS-CoV-2 beta variant) (UniProt P0DTC2); experiment: electrochemical aptasensor (DPV); conditions: 5' di-DTPA (2 dithiol phosphoramidite groups), on gold with PEG 2000 backfill

“GGGGGCGTCAAGCGGGGTCACATCGGAGTAGGGAATCTTG [C9t (SPR)]” gave a Kd [1] of 14.6 nM.
For “GGGGGCGTCAAGCGGGGTCACATCGGAGTAGGGAATCTTG [C9t di-DTPA (surface-immobilized)]”, the binding signal [2] was 1240 dI/I0, the binding signal [3] was 17.9 dI/I0 and 31.9 dI/I0 and the binding signal [4] was 27.1 dI/I0 and 43.6 dI/I0.
